Laboratory results from US20240360238A1 (MAGENTA THERAPEUTICS, published 2024).
Where a chain is given by its changes, count along the chain named.

B1: HC-27/LC-27 (Ab27) (antibody, IgG1, V domains shown)
VH: EVQLVESGGGLVQPGRSMKLSCKASGFTFSNYDMAWVRQAPTRGLEWVASISYDGITAYYRDSVKGRFTISRENAKSTLYLQLVSLRSEDTATYYCTTEGGYVYSGPHYFDYWGQGVMVTVSS
VL: DIQMTQSPSSMSVSLGDTVTITCRASQDVGIFVNWFQQKPGRSPRRMIYRATNLADGVPSRFSGSRSGSDYSLTISSLESEDVADYHCLQYDEFPRTFGGGTKLELK
notes: From rat immunization/hybridoma; purified IgG in BLI; also called 027
B2: HC-21/LC-21 (Ab21) (antibody, IgG1, V domains shown)
VH: QIQLVQSGPELKKPGESVKISCKASGYTFTDYAVYWVIQAPGKGLKWMGWINTYTGKPTYADDFKGRFVFSLETSASTANLQISNLKNEDTATYFCARGAGMTKDYVMDAWGRGVLVTVS
VL: SYELIQPPSASVTLGNTVSLTCVGDELSKRYAQWYQQKPDKTIVSVIYKDSERPSDISDRFSGSSSGTTATLTIHGTLAEDEADYYCLSTYSDDNLPVFGGGTKLTVL
notes: From rat immunization/hybridoma; purified IgG in BLI; also called 021
B3: HC-20/LC-20 (Ab20) (antibody, IgG1, V domains shown)
VH: EVQLQQYGAELGKPGTSVRLSCKLSGYKIRNTYIHWVNQRPGKGLEWIGRIDPANGNTIYAEKFKSKVTLTADTSSNTAYMQLSQLKSDDTALYFCAMNYEGYEDYWGQGVMVTVSS
VL: DIQMTQSPSFLSASVGDSVTINCKASQNINKYLNWYQQKLGEAPKRLIHKTDSLQTGIPSRFSGSGSGTDYTLTISSLQPEDVATYFCFQYKSGFMFGAGTKLELK
notes: From rat immunization/hybridoma; purified IgG in BLI; also called 020
B4: HC-28/LC-28 (Ab28) (antibody, IgG1, V domains shown)
VH: B3 VH with L24V
VL: B3 VL with D52N, T56P, I58F, T85A, K92N, M96T
notes: From rat immunization/hybridoma; purified IgG in BLI; also called 028
B5: HC-22/LC-22 (Ab22) (antibody, IgG1, V domains shown)
VH: QVQLKESGPGLVQPSQTLSLTCTVSGFSLTSYLVHWVRQPPGKTLEWVGLMWNDGDTSYNSALKSRLSISRDTSKSQVFLKMHSLQAEDTATYYCARESNLGFTYWGHGTLVTVSS
VL: DIQMTQSPASLSASLEEIVTITCKASQGIDDDLSWYQQKPGKSPQLLIYDVTRLADGVPSRFSGSRSGTQYSLKISRPQVADSGIYYCLQSYSTPYTFGAGTKLELK
notes: From rat immunization/hybridoma; purified IgG in BLI; also called 022
B6: HC-25/LC-25 (Ab25) (antibody, IgG1, V domains shown)
VH: QIQLVQSGPELKKPGESVKISCKASGYTFTDYAIHWVKQAPGQGLRWMAWINTETGKPTYADDFKGRFVFSLEASASTAHLQISNLKNEDTATFFCAGGSHWFAYWGQGTLVTVSS
VL: SYELIQPPSASVTLENTVSITCSGDELSNKYAHWYQQKPDKTILEVIYNDSERPSGISDRFSGSSSGTTAILTIRDAQAEDEADYYCLSTFSDDDLPIFGGGTKLTVL
notes: From rat immunization/hybridoma; purified IgG in BLI; also called 025
B7: HC-24/LC-24 (Ab24) (antibody, IgG1, V domains shown)
VH: EVQLVESGGGLVQSGRSLKLSCAASGFTVSDYYMAWVRQAPTKGLEWVATINYDGSTTYHRDSVKGRFTISRDNAKSTLYLQMDSLRSEDTATYYCARHGDYGYHYGAYYFDYWGQGVMVTVSS
VL: DIVLTQSPALAVSLGQRATISCRASQTVSLSGYNLIHWYQQRTGQQPKLLIYRASNLAPGIPARFSGSGSGTDFTLTISPVQSDDIATYYCQQSRESWTFGGGTNLEMK
notes: From rat immunization/hybridoma; purified IgG in BLI; also called 024
B8: HC-77/LC-77 anti-CD117-ADC (conjugated to an amatoxin) (antibody, V domains shown)
VH: QVQLVQSGAAVKKPGESLKISCKGSGYRFTTYWIGWVRQMPGKGLEWMGIIYPGDSDTRYSPSFQGQVTISAGKSISTAYLQWSSLKASDTAMYYCARHGRGYNGYEGAFDIWGQGTMVTVSS
VL: DIQLTQSPSSLSASVGDRVTITCRASQGVISALAWYQQKPGKAPKLLIYDASILESGVPSRFSGSGSGTDFTLTISSLQPEDFATYYCQQFNSYPLTFGGGTKVEIK
modifications: antibody conjugated to an amatoxin; site not stated
B9: HC-246/LC-246 anti-CD117-ADC (conjugated to an amatoxin) (antibody, V domains shown)
VH: B8 VH
VL: B8 VL with L4M, V29I, I30G, I53T, S93G, G100Q, K103R, V104L
modifications: antibody conjugated to an amatoxin; site not stated
B10: HC-247/LC-247 anti-CD117-ADC (conjugated to an amatoxin) (antibody, V domains shown)
VH: B8 VH
VL: DIQMTQSPSSLSASVGDRVTITCRASRGISDYLAWYQQKPGKAPKLLIYDASNLETGVPSRFSGSGSGTDFTLTISSLQPEDFATYYCQQANSFPITFGQGTRLEIK
modifications: antibody conjugated to an amatoxin; site not stated
B11: HC-245/LC-245 anti-CD117-ADC (conjugated to an amatoxin) (antibody, V domains shown)
VH: B8 VH with Q1E, A10E, Y32S, G73D, R101L, M118L
VL: B8 VL with L4M, V29I, I30G, I53T, S93G, G100Q, K103R, V104L
modifications: antibody conjugated to an amatoxin; site not stated
B12: HC-81/LC-81 anti-CD117-ADC (conjugated to an amatoxin) (antibody, V domains shown)
VH: B8 VH
VL: B8 VL with I53T
modifications: antibody conjugated to an amatoxin; site not stated
B13: HC-248/LC-248 (Ab248) (antibody, V domains shown)
VH: B8 VH with Q1E, A10E, Y32S, G73D, R101L, M118L
VL: B8 VL with L4M, V29I, I30G, I53T, F91L, S93G, G100Q, K103R, V104L
notes: IgG on anti-human Fc sensors; hIgG1/hKappa
B14: HC-247/LC-247 (Ab247) (antibody, V domains shown)
VH: B8 VH
VL: B10 VL
notes: as for B13
B15: HC-79/LC-79 anti-CD117-ADC (conjugated to an amatoxin) (antibody, V domains shown)
VH: B8 VH
VL: B8 VL with I30G
modifications: antibody conjugated to an amatoxin; site not stated
B16: HC-245/LC-245 (Ab245) (antibody, V domains shown)
VH: B8 VH with Q1E, A10E, Y32S, G73D, R101L, M118L
VL: B8 VL with L4M, V29I, I30G, I53T, S93G, G100Q, K103R, V104L
notes: as for B13
B17: HC-248/LC-248 anti-CD117-ADC (conjugated to an amatoxin) (antibody, V domains shown)
VH: B8 VH with Q1E, A10E, Y32S, G73D, R101L, M118L
VL: B8 VL with L4M, V29I, I30G, I53T, F91L, S93G, G100Q, K103R, V104L
modifications: antibody conjugated to an amatoxin; site not stated
B18: HC-246/LC-246 (Ab246) (antibody, V domains shown)
VH: B8 VH
VL: B8 VL with L4M, V29I, I30G, I53T, S93G, G100Q, K103R, V104L
notes: as for B13

What was measured:
[1] = biological target: T1, purified human CD117 ectodomain (R&D Systems #332-SR) (human, UniProt P10721 26-524); experiment: BLI, purified IgG on sensor, soluble ectodomain; apparent monovalent
T1 construct: extracellular domain; Bought protein; also called c-kit; purified recombinant human CD117 ectodomain
T1 sequence (P10721 26-524): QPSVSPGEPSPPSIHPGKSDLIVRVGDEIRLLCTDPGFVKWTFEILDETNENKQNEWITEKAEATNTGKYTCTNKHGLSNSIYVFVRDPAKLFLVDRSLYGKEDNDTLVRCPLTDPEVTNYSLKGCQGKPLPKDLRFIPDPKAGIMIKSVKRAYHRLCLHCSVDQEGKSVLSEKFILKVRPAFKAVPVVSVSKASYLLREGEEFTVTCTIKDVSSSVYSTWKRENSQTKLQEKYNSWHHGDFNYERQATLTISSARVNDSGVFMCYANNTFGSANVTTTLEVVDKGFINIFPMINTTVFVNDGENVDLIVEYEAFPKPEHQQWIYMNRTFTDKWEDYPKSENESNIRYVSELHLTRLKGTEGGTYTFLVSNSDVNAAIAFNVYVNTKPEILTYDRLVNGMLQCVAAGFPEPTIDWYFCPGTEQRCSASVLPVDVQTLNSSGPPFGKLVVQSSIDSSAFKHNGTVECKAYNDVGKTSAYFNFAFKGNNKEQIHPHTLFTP

[2] = biological target: T2, purified rhesus CD117 ectodomain (rhesus, UniProt F6V858 26-524); experiment: BLI, purified IgG on sensor, soluble rhesus ectodomain; apparent monovalent
T2 construct: extracellular domain; also called rhesus antigen

[3] = biological target: CD117 on Kasumi-1 cells and primary human CD34+ bone marrow cells (human, UniProt P10721 26-976); experiment: cell-based or functional assay
Chain of CD117 on Kasumi-1 cells and primary human CD34+ bone marrow cells (P10721 26-976): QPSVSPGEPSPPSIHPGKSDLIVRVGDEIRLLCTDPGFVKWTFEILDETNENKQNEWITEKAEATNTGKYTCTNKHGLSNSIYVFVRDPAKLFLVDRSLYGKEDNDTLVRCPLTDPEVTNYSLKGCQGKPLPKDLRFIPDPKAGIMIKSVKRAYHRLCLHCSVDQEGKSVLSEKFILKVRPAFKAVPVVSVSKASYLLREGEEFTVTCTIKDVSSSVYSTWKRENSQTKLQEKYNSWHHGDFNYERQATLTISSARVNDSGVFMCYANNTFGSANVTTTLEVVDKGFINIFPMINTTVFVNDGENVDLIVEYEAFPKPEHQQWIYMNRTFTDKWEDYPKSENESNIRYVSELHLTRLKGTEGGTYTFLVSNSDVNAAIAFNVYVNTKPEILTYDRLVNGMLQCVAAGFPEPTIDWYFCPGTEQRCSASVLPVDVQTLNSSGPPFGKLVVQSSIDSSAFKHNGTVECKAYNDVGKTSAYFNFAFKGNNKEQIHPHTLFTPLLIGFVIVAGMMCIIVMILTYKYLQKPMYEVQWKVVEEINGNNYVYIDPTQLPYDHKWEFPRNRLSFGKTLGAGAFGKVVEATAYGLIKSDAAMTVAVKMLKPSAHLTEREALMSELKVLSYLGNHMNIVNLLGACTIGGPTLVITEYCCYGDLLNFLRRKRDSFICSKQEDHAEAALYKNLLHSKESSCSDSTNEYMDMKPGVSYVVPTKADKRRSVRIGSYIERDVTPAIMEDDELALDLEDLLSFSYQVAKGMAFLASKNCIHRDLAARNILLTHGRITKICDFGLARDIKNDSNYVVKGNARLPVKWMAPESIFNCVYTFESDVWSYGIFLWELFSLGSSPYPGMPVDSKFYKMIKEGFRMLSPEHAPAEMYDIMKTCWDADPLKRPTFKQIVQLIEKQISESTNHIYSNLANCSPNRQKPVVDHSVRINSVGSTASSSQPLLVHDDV

[4] = biological target: T1, purified human CD117 ectodomain (R&D …); experiment: BLI; kdis compared to HC-1/LC-1 (Ab1)
[5] = biological target: T1, purified human CD117 ectodomain (R&D …); experiment: BLI, IgG on anti-human Fc sensor, 33 and 11 nM ectodomain;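 note: Kd, kon and koff are apparent values, with Kd reported as the apparent monovalent affinity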

Row | Binder | Kd [1] [nM] | koff [1] [s⁻¹] | kon [1] [M⁻¹ s⁻¹] | Kd [2] [nM] | koff [2] [s⁻¹] | kon [2] [M⁻¹ s⁻¹] | % efficacy, killing of primary human CD34+CD90+ cells [3] [%] | IC50, killing of primary human CD34+CD90+ cells (5 days, flow cytometry counts) [3] [nM] | also measured
1 | B1 | 0.53 | 0.000378 | 712000 | 0.89 | 0.000275 | 309000 | – | – | –
2 | B2 | 0.715 | 0.000437 | 612000 | 0.869 | 0.000357 | 410000 | – | – | –
3 | B3 | 0.254 | 0.000202 | 794000 | 1.39 | 0.000585 | 421000 | – | – | –
4 | B4 | 0.403 | 0.000368 | 914000 | 3.6 | 0.00187 | 521000 | – | – | –
5 | B5 | 0.0964 | 0.000221 | 2.29e+06 | 0.0891 | 0.000155 | 1.74e+06 | – | – | –
6 | B6 | 0.52 | 0.00153 | 2.94e+06 | 0.81 | 0.00195 | 2.41e+06 | – | – | –
7 | B7 | 0.986 | 0.00011 | 111000 | 19.6 | 0.000777 | 39700 | – | – | –
8 | B8 | – | – | – | – | – | – | 54.4 | 0.00694 | –
9 | B9 | – | – | – | – | – | – | 67.8 | 0.00453 | –
10 | B10 | – | – | – | – | – | – | 55.4 | 0.00837 | –
11 | B11 | – | – | – | – | – | – | 76.4 | 0.00578 | –
12 | B12 | – | – | – | – | – | – | 68.7 | 0.00377 | –
13 | B13 | – | – | – | – | – | – | – | – | Fold improvement (off-rate) [4]: 7.1 fold; Kd [5]: 0.922 nM; koff [5]: 0.000319 s⁻¹; kon [5]: 346000 M⁻¹ s⁻¹
14 | B14 | – | – | – | – | – | – | – | – | Fold improvement (off-rate) [4]: 3.6 fold; Kd [5]: 1.68 nM; koff [5]: 0.00063 s⁻¹; kon [5]: 374000 M⁻¹ s⁻¹
15 | B15 | – | – | – | – | – | – | 63.4 | 0.00709 | –
16 | B16 | – | – | – | – | – | – | – | – | Fold improvement (off-rate) [4]: 7.9 fold; Kd [5]: 0.813 nM; koff [5]: 0.000285 s⁻¹; kon [5]: 350000 M⁻¹ s⁻¹
17 | B17 | – | – | – | – | – | – | 47.8 | 0.00646 | –
18 | B18 | – | – | – | – | – | – | – | – | Fold improvement (off-rate) [4]: 8.9 fold; Kd [5]: 0.708 nM; koff [5]: 0.000255 s⁻¹; kon [5]: 361000 M⁻¹ s⁻¹
